Assay results reported in the supplement of paper PMC10567573.

B1: FAM46C (parent)
chain: FDHLQNRLIATKNPEEIRGGGLLK
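Further: lentivirally expressed fusions sorted by FACS into six bins by GFP to DsRed ratio, PSI derived from sequencing read proportions per bin multiplied by bin number.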

Variants of: B1
Assay: protein stability index of a GFP-peptide fusion (GPS, HEK-293T) (PSI 1-6); higher = more stable
Conditions: c terminus: a fixed tail appended
With A10Y the protein stability index was 1.87.
With A10V the protein stability index was 3.38.
In the case of A10P, the protein stability index is reported as 4.52.
A10Q showed a protein stability index of 2.25.
Variant A10N has a protein stability index of 4.07.
For A10T, the protein stability index was 3.88.
Variant A10G has a protein stability index of 3.52.
A10C gave a protein stability index of 3.46.
A10E gave a protein stability index of 4.
A10K showed a protein stability index of 3.49.
A10L gave a protein stability index of 2.57.
With I9W the protein stability index was 2.16.
With I9A the protein stability index was 4.86.
In the case of I9Q, the protein stability index is reported as 4.57.
I9L showed a protein stability index of 4.44.
Variant I9T has a protein stability index of 4.4.
I9M showed a protein stability index of 3.58.
Work on I9F yielded a protein stability index of 3.53.
For I9K, the protein stability index was 4.27.
With I9G the protein stability index was 4.3.
In the case of I9R, the protein stability index is reported as 4.05.
I9N showed a protein stability index of 4.06.
I9S gave a protein stability index of 3.98.
I9Y showed a protein stability index of 3.56.
I9D gave a protein stability index of 3.5.
In the case of I9H, the protein stability index is reported as 3.05.
Work on I9C yielded a protein stability index of 4.43.
Work on L8C yielded a protein stability index of 4.03.
With L8E the protein stability index was 5.03.
In the case of L8T, the protein stability index is reported as 4.34.
L8Y gave a protein stability index of 4.4.
In the case of L8N, the protein stability index is reported as 4.45.
Variant L8I has a protein stability index of 3.66.
Work on L8R yielded a protein stability index of 3.72.
In the case of L8W, the protein stability index is reported as 4.
Variant L8D has a protein stability index of 5.05.
Work on L8V yielded a protein stability index of 2.97.
With L8F the protein stability index was 3.23.
L8K gave a protein stability index of 4.16.
L8S showed a protein stability index of 4.62.
In the case of L8P, the protein stability index is reported as 4.72.
For L8Q, the protein stability index was 5.05.
Work on L8A yielded a protein stability index of 4.43.
Work on H3R yielded a protein stability index of 3.73.
H3S showed a protein stability index of 3.17.
In the case of H3V, the protein stability index is reported as 3.87.
With H3L the protein stability index was 3.25.
Variant H3Q has a protein stability index of 3.51.
Work on H3G yielded a protein stability index of 3.79.
H3W showed a protein stability index of 2.99.
H3N showed a protein stability index of 3.05.
H3C gave a protein stability index of 3.63.
In the case of H3E, the protein stability index is reported as 4.28.
In the case of H3M, the protein stability index is reported as 3.71.
Variant H3I has a protein stability index of 3.59.
H3D gave a protein stability index of 4.52.
With H3F the protein stability index was 2.06.
Variant E16Y has a protein stability index of 3.91.
For E16T, the protein stability index was 3.79.
With E16H the protein stability index was 2.55.
E16K showed a protein stability index of 4.02.
In the case of E16P, the protein stability index is reported as 2.73.
Variant E16W has a protein stability index of 2.5.
In the case of E16Q, the protein stability index is reported as 3.58.
With E16R the protein stability index was 3.47.
In the case of E16S, the protein stability index is reported as 3.48.
In the case of E16F, the protein stability index is reported as 2.44.
E16L gave a protein stability index of 2.9.
E16G showed a protein stability index of 2.93.
In the case of E16N, the protein stability index is reported as 3.67.
In the case of K24Q, the protein stability index is reported as 3.27.
Variant K24I has a protein stability index of 1.96.
For K24H, the protein stability index was 3.07.
Work on K24W yielded a protein stability index of 1.95.
For K24F, the protein stability index was 2.2.
Variant K24N has a protein stability index of 3.52.
K24G showed a protein stability index of 3.52.
Variant K24T has a protein stability index of 3.45.
Work on K24Y yielded a protein stability index of 1.93.
K24S showed a protein stability index of 2.9.
For K24V, the protein stability index was 2.29.
In the case of K24L, the protein stability index is reported as 2.18.
In the case of K24C, the protein stability index is reported as 2.28.
K24A showed a protein stability index of 2.94.
Work on K24E yielded a protein stability index of 3.79.
Work on K24D yielded a protein stability index of 3.51.
Work on K24R yielded a protein stability index of 3.35.
N13T showed a protein stability index of 3.64.
In the case of N13W, the protein stability index is reported as 3.14.
N13E gave a protein stability index of 4.1.
With N13I the protein stability index was 3.47.
N13F showed a protein stability index of 2.96.
In the case of N13Q, the protein stability index is reported as 3.86.
Work on N13K yielded a protein stability index of 4.03.
Variant N13M has a protein stability index of 2.81.
In the case of N13S, the protein stability index is reported as 3.62.
Work on N13G yielded a protein stability index of 2.86.
D2I gave a protein stability index of 1.04.
D2A gave a protein stability index of 2.78.
D2H gave a protein stability index of 3.1.
D2Y showed a protein stability index of 2.8.
D2Q gave a protein stability index of 4.32.
D2L gave a protein stability index of 2.33.
Work on D2G yielded a protein stability index of 2.82.
With D2T the protein stability index was 1.93.
Work on D2C yielded a protein stability index of 1.72.
Work on D2K yielded a protein stability index of 3.24.
For D2F, the protein stability index was 1.89.
D2E showed a protein stability index of 4.18.
D2S gave a protein stability index of 4.75.
Work on P14Y yielded a protein stability index of 3.2.
For P14K, the protein stability index was 3.77.
P14T gave a protein stability index of 3.84.
Variant P14L has a protein stability index of 3.87.
Variant P14W has a protein stability index of 2.59.
Variant P14Q has a protein stability index of 3.54.
With P14C the protein stability index was 3.74.
Variant P14R has a protein stability index of 4.
P14V showed a protein stability index of 3.25.
Work on P14N yielded a protein stability index of 4.12.
P14S showed a protein stability index of 3.49.
In the case of P14G, the protein stability index is reported as 4.2.
Work on P14D yielded a protein stability index of 3.87.
P14F showed a protein stability index of 2.97.
Variant N6M has a protein stability index of 3.32.
For N6A, the protein stability index was 3.58.
Variant N6K has a protein stability index of 3.81.
Work on N6Q yielded a protein stability index of 4.1.
N6T gave a protein stability index of 1.91.
N6P gave a protein stability index of 4.46.
In the case of N6C, the protein stability index is reported as 1.88.
Variant N6Y has a protein stability index of 2.95.
For N6S, the protein stability index was 3.31.
Work on N6I yielded a protein stability index of 2.56.
Variant N6F has a protein stability index of 2.38.
Work on N6E yielded a protein stability index of 3.87.
With N6V the protein stability index was 2.55.
K12V showed a protein stability index of 4.38.
For K12P, the protein stability index was 4.24.
In the case of K12E, the protein stability index is reported as 3.71.
In the case of K12N, the protein stability index is reported as 3.82.
Work on K12L yielded a protein stability index of 2.65.
Work on K12C yielded a protein stability index of 2.9.
K12G showed a protein stability index of 4.
K12A showed a protein stability index of 3.68.
Work on K12Y yielded a protein stability index of 3.24.
With K12M the protein stability index was 3.37.
For K12T, the protein stability index was 3.75.
For E15S, the protein stability index was 3.75.
For E15N, the protein stability index was 3.95.
Variant E15M has a protein stability index of 4.01.
E15T gave a protein stability index of 3.29.
With E15Q the protein stability index was 2.53.
For E15H, the protein stability index was 3.65.
Variant E15W has a protein stability index of 2.63.
Work on E15P yielded a protein stability index of 3.13.
E15F gave a protein stability index of 3.06.
Work on E15A yielded a protein stability index of 3.92.
E15L showed a protein stability index of 2.78.
E15D showed a protein stability index of 4.07.
Work on E15I yielded a protein stability index of 2.93.
Variant E15K has a protein stability index of 3.25.
E15R gave a protein stability index of 3.89.
Variant F1N has a protein stability index of 4.4.
With F1P the protein stability index was 4.59.
With F1K the protein stability index was 4.45.
F1M gave a protein stability index of 4.39.
